Data from paper PMC6232143.

What was measured:
[1] = target: His6.TssA1^B CTD H12-H14 (303-358) (B. cenocepacia); experiment: crystal structure; His6.TssA1^B CTD H12-H14 (303-358), 2.35 Å, two molecules in the asymmetric unit
[2] = target: His6.TssA2^A (1-478) (A. hydrophila); experiment: SEC-MALS; S200 10/300 column, 50 mM Tris.HCl (pH 8.0), 500 mM NaCl, ~20 °C; 4.5-6.8 mg/ml
[3] = target: His6.TssA2^A CTD (381-478) (A. hydrophila); experiment: as above
[4] = target: His6.TssA2^A Nt2 (223-387) (A. hydrophila); experiment: crystal structure; His6.TssA2^A Nt2 (223-387), ethyl mercury phosphate derivative, 2.16 Å, two monomers in the asymmetric unit
[5] = target: His6.TssA2^A Nt2-CTD (223-478) (A. hydrophila); experiment: crystal structure; His6.TssA2^A Nt2-CTD (223-478), 3.13 Å, ten subunits in the asymmetric unit
[6] = target: His6.TssA2^A Nt2-CTD (223-478) (A. hydrophila); experiment: SEC-MALS; S200 10/300 column, 50 mM Tris.HCl (pH 8.0), 500 mM NaCl, ~20 °C; 4.5-6.8 mg/ml
[7] = target: Native TssA1^B (1-373) (B. cenocepacia); experiment: SEC-MALS; Superose-6 10/300 column, 10 mM phosphate buffer (pH 7.4), 2.7 mM KCl, 137 mM NaCl, ~20 °C
[8] = target: TssA1^B CTD (303-373) (B. cenocepacia); experiment: crystal structure; TssA1^B CTD (303-373), 3.08 Å, spacegroup I222, eight monomers in the asymmetric unit
[9] = target: TssA1^B CTD fragment (303-347) (B. cenocepacia); experiment: crystal structure; TssA1^B CTD fragment 303-347 (clipped 303-373 construct), 1.78 Å, spacegroup I222
[10] = target: TssA2^A Nt1-Nt2.His6 (231-374) (A. hydrophila); experiment: crystal structure; TssA2^A Nt2 (231-374) from the Nt1-Nt2.His6 construct, 1.76 Å, four molecules in the asymmetric unit

With “His6.TssA1^B CTD H12-H14 (303-358) (domain or fragment)” the stoichiometry N [1] was 2.
His6.TssA2^A (1-478) (natural protein) gave a stoichiometry N [2] of 10.
In the case of “His6.TssA2^A CTD (381-478) (domain or fragment)”, the stoichiometry N [3] is reported as 10.
In the case of “His6.TssA2^A Nt2 (223-387) (domain or fragment)”, the stoichiometry N [4] is reported as 2.
“His6.TssA2^A Nt2-CTD (223-478) (domain or fragment)” gave a stoichiometry N [5] of 10 and a stoichiometry N [6] of 10.
“Native TssA1^B (1-373) (natural protein)” showed a stoichiometry N [7] of 30 subunits.
“TssA1^B CTD (303-373) (domain or fragment)” gave a stoichiometry N [8] of 32 subunits.
For “TssA1^B CTD fragment (303-347) (domain or fragment)”, the stoichiometry N [9] was 2.
With “TssA2^A Nt1-Nt2.His6 (231-374) (domain or fragment)” the stoichiometry N [10] was 2.
